Results taken from US20170210813A1 (Regeneron, published 2017).

B1: H1M3299N (antibody, mouse IgG1, V domains shown)
VH: QVQLVESGGGVVQPGRSLRLSCAASGFTFSSYGLHWVRQAPGKGLEWVALISNVGSNKYYADSVKGRFTISRDNSKNSLFLQMNSLRAEDTAVYYCAKGADYYYYGMDVWGQGTTVTVSS
VL: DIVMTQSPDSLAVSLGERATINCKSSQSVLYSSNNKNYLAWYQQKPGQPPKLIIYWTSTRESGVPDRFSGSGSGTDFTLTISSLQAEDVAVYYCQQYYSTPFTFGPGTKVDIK
notes: mouse IgG1 Fc (H1M prefix)
B2: H1M3305N (antibody, mouse IgG1, V domains shown)
VH: QLQLQESGPGLVKPSETLSLTCIVSGGSISSSSYYWGWIRQPPGKGLEWIGSLYYSGITFYNPSLKSRVTISVDTSKNQFSLTLTSVTAADTAVFYCARHRVMASSPFDHWGQGTLVTVSS
VL: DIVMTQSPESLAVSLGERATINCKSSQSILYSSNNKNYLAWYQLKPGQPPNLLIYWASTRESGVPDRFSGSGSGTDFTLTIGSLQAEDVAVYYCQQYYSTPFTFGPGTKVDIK
notes: human variable domains with mouse constant domains, mouse IgG1 Fc (H1M prefix)
B3: H1M3310N (antibody, mouse IgG1, V domains shown)
VH: EVQLLESGGDLVQPGGSLRLSCAASGITFSSFAMSWVRQAPGKGLEWVSTVSVSAGITYYADSVKGRFTISRDNSKNTLYLQMNSLRAEDTAIYYCAKSSCTTNSCPAYFDYWGLGTLVTVSS
VL: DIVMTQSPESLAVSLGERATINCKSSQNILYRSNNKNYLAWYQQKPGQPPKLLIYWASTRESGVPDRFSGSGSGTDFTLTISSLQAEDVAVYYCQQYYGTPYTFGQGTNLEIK
notes: mouse IgG1 Fc (H1M prefix)
B4: H1M3361N (antibody, mouse IgG1, V domains shown)
VH: EVQLVESGGGLVQPGGSLRLSCAASGFTFSSYWMTWVRQAPGKGLEWVANIRQDGSDKYYVDSVKGRFTISRDNAKNSLFLQMNSLRAEDTAVYYCARTNGGTYGYNHYYYGMDVWGQGTTVTVSS
VL: DIQMTQSPSSLSASVGDRVTITCRASQGIRNDLGWYQLKPGKAPKRLIFAASSLQSGVPSRFSGSGSGTEFTLTISSLQPEDFATYYCLQHNSYPWTFGQGTKVEIK
notes: mouse IgG1 Fc (H1M prefix)
B5: H2M3363N (antibody, V domains shown)
VH: QVQVQESGPGLVKPSETLSLTCTVSGDSISSSSYYWGWIRQPPGKGLEWIGSIYYNGISSYNPSLKSRVTISVESSKNQFSLRLASVTAADTALYYCARHRAARRFSEAFDIWGQGTMVTVSS
VL: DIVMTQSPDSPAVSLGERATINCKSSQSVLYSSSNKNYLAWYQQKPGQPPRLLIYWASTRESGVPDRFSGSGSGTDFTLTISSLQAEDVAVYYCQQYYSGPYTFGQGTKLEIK
notes: mouse Fc (H2M prefix; isotype not spelled out)
B6: H2M3365N (antibody, V domains shown)
VH: EVQLVESGGGLVQPGRSLRLSCAASGFTFDDFAMHWVRQVPGKGLEWVSGISWSSGTIGYVGSVKGRFTISRDNAKNSLYLQMNSLRAEDTAMYFCTKDKAAFHDAFDIWGQGTMVTVSS
VL: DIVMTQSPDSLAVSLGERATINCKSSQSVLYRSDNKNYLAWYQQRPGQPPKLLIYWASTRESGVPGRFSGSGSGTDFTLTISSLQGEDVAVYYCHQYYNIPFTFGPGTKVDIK
notes: as for B5
B7: H4H3095S (antibody, human IgG4, V domains shown)
VH: EVQLVESGGGLVQPGGSLRLSCGASGFTFSSYWMTWVRQAPGKGLEWVGNINQDGSEKYSVDSVKGRFTISRDNAKNSLYLQMNRVRAEDTAVYYCSRDLVPPRQGDNYYYFGMDVWGLGTTVTVSS
VL: DIQMTQSPSTLSASVGDRVIITCRASQNINNWLAWYQQQPGKAPKLLIYEASSLESGVPSRFSGSGSGTEFTLTIGSLQPDDFATYYCQHYNSYSRTFGQGTKVDIK
notes: human IgG4 Fc (H4H prefix)

Biological target: T1, hPDGFRb.mmh (human, UniProt P09619 33-531)
T1 construct: Soluble monomeric construct; also called soluble human PDGFR-beta.mmh
Assay: SPR, mAb captured, 25 C
Procedure: (§1) Antibodies, expressed as either mouse Fc (prefix H1M; H2M) or human Fc (prefix H4H), were captured on their respective anti-Fc sensor surfaces (Mab capture format). […] Kinetic association (kₐ) and dissociation (kd) rate constants were determined by processing and fitting the data to a 1:1 binding model using Scrubber 2.0 curve fitting software.

Binder	Kd	koff	kon	t1/2
B1	43.5 nM	0.00092 s⁻¹	21100 M⁻¹ s⁻¹	0.217 h
B2	0.808 nM	2.52e-05 s⁻¹	31200 M⁻¹ s⁻¹	7.63 h
B3	≤ 0.07 nM	≤ 1e-06 s⁻¹	14000 M⁻¹ s⁻¹	192 h
B4	7.29 nM	0.00126 s⁻¹	173000 M⁻¹ s⁻¹	0.15 h
B5	46.8 nM	0.00333 s⁻¹	71100 M⁻¹ s⁻¹	0.05 h
B6	2.79 nM	0.000127 s⁻¹	45400 M⁻¹ s⁻¹	1.52 h
B7	4.78 nM	0.00136 s⁻¹	285000 M⁻¹ s⁻¹	0.133 h

Biological target: T2, Macaca fascicularis PDGFRb.mmh (Macaca fascicularis)
T2 construct: Soluble monomeric construct; also called mfPDGFRb.mmh
T2 chain: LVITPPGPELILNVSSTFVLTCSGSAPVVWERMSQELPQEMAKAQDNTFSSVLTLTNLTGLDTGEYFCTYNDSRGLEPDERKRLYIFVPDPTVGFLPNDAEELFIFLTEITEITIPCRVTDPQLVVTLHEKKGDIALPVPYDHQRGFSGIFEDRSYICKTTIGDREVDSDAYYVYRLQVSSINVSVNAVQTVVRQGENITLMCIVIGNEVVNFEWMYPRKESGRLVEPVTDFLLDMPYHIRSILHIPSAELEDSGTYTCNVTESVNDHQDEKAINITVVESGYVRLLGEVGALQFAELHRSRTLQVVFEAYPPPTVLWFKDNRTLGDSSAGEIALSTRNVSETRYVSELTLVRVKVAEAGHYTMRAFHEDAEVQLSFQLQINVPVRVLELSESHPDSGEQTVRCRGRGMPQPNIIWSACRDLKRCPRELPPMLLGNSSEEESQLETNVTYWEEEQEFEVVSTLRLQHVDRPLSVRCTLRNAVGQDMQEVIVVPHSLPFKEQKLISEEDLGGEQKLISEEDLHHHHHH
Assay: SPR, mAb captured, 25 C
Procedure: as §1

Binder	binding result	Kd	koff	kon	t1/2
B1	no binding				
B2		0.816 nM	4.16e-05 s⁻¹	51000 M⁻¹ s⁻¹	4.63 h
B3		≤ 0.1 nM	1e-06 s⁻¹		192 h
B4		3.9 nM	3.89e-05 s⁻¹	10000 M⁻¹ s⁻¹	4.95 h
B5		1.4 nM	6.85e-05 s⁻¹	50000 M⁻¹ s⁻¹	2.82 h
B6		3.4 nM	0.000206 s⁻¹	60000 M⁻¹ s⁻¹	0.933 h
B7		8.5 nM	0.00175 s⁻¹	207000 M⁻¹ s⁻¹	0.117 h

Biological target: T3, human PDGFRb.mFc (human)
T3 construct: Soluble dimeric construct with mouse Fc; also called hPDGFRb.mFc; soluble human PDGFR-beta.mFc
T3 chain: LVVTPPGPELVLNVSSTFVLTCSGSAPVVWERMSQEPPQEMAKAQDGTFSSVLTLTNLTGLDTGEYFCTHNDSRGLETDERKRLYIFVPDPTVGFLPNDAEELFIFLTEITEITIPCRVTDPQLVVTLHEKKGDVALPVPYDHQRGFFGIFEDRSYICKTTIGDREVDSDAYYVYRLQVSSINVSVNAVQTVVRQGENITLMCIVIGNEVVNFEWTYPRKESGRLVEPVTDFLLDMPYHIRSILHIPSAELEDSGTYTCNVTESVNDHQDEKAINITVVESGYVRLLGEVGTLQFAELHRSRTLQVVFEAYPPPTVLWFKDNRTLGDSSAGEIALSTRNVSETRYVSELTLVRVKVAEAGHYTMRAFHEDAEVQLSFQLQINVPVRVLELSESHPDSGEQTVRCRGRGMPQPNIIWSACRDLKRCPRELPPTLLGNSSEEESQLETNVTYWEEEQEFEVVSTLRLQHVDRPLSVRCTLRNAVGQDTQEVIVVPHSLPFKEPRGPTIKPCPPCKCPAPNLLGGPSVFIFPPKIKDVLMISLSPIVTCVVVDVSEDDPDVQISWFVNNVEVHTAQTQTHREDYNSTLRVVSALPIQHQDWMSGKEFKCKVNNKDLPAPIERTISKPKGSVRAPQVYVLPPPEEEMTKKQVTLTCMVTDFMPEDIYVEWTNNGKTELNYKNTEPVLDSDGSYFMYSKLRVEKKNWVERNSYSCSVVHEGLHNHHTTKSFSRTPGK
Assay: SPR, mAb captured, 25 C
Procedure: as §1

Binder	Kd	koff	kon	t1/2
B1	6.35 nM	0.000165 s⁻¹	25900 M⁻¹ s⁻¹	1.17 h
B2	≤ 0.00617 nM	≤ 1e-06 s⁻¹	162000 M⁻¹ s⁻¹	192 h
B3	≤ 0.0789 nM	≤ 1e-06 s⁻¹	12700 M⁻¹ s⁻¹	192 h
B4	≤ 0.0765 nM	≤ 1e-06 s⁻¹	13100 M⁻¹ s⁻¹	192 h
B5	0.0386 nM	4.03e-06 s⁻¹	104000 M⁻¹ s⁻¹	47.8 h
B6	0.34 nM	8.01e-05 s⁻¹	236000 M⁻¹ s⁻¹	2.4 h

Biological target: T4, human PDGFRb.hFc (human)
T4 construct: Soluble dimeric construct with human Fc; also called hPDGFRb.hFc
Assay: SPR, mAb captured, 25 C
Procedure: as §1

Binder	Kd	koff	kon	t1/2
B7	0.72 nM	0.000232 s⁻¹	321000 M⁻¹ s⁻¹	0.833 h

Biological target: T1, hPDGFRb.mmh
Assay: blocking ELISA, biot-hPDGFRb.mmh to coated PDGF-BB
Procedure: The equilibrated PDGFR-beta/antibody solutions were added to ligand-coated plates, allowed to incubate for 1 hr, and washed. Levels of bound biot-hPDGFR-beta.mmh were detected using HRP conjugated streptavidin. Data were analyzed using Prism software and IC₅₀ values were calculated as the amount of antibody required to achieve 50% reduction of hPDGFR-beta-mmh bound to ligand. Maximum blocking values were also calculated and reflect the ability of the antibody to block relative to baseline. The absorbance measured at the constant amount of 250 pM biot-hPDGFR-beta-mmh on the dose curve is defined as 0% blocking and the absorbance with no added PDGFR-beta is defined as 100%. The absorbance of the wells containing the highest antibody concentration determined the maximum blocking percent.

Binder	% Maximum Blocking	IC50
B1	67%	7.6 nM
B2	83%	0.085 nM
B3	88%	0.12 nM
B4	76%	0.1 nM
B5	77%	4.1 nM
B6	82%	0.09 nM
B7	82%	1.4 nM

Biological target: full length human PDGFR-beta on HEK293 cells (human, UniProt P09619 33-1106)
Assay: cell-based or functional assay

Binder	IC50, blocking PDGF-BB (250 pM) activation, SRE-luciferase	IC50, blocking PDGF-DD (400 pM) activation, SRE-luciferase
B1	5.6e-10 M	4.2e-10 M
B2	8.5e-09 M	1.9e-10 M
B3	2.3e-08 M	2.8e-10 M
B4	6.8e-09 M	8.4e-11 M
B5	7.5e-09 M	1.9e-10 M
B6	7.9e-09 M	1.1e-10 M
B7	6.1e-10 M	8.2e-10 M

Biological target: T1, hPDGFRb.mmh
Assay: SPR, mAb captured, 37 C
Procedure: as §1

Binder	Kd	koff	kon	t1/2
B1	68.6 nM	0.00217 s⁻¹	31600 M⁻¹ s⁻¹	0.0833 h
B2	0.88 nM	0.000102 s⁻¹	116000 M⁻¹ s⁻¹	1.88 h
B3	1.83 nM	6.46e-05 s⁻¹	35300 M⁻¹ s⁻¹	2.98 h
B4	27.4 nM	0.00833 s⁻¹	304000 M⁻¹ s⁻¹	0.0233 h
B5	17.6 nM	0.00503 s⁻¹	286000 M⁻¹ s⁻¹	0.0333 h
B6	4.79 nM	0.000551 s⁻¹	115000 M⁻¹ s⁻¹	0.35 h
B7	13.8 nM	0.00624 s⁻¹	452000 M⁻¹ s⁻¹	0.0333 h

Biological target: T2, Macaca fascicularis PDGFRb.mmh
Assay: SPR, mAb captured, 37 C
Procedure: as §1

Binder	Kd	koff	kon	t1/2
B7	33.3 nM	0.00797 s⁻¹	239000 M⁻¹ s⁻¹	1.5 min

Biological target: T4, human PDGFRb.hFc
Assay: SPR, mAb captured, 37 C
Procedure: as §1

Binder	Kd	koff	kon	t1/2
B7	1.67 nM	0.00071 s⁻¹	425000 M⁻¹ s⁻¹	0.267 h
